Experimental data as given in patent US20150064177A1 (ELAN PHARMACEUTICALS, published 2015).

Target: T1, human α4β1 integrin (human, UniProt P13612 34-1032; P05556 21-798)
T1 construct: whole, on cells; In the ELISA it is on transformed L cells; In the adhesion assays it is on human U937 monocytic cells and human Jurkat T cells; also called VLA-4; alpha-4-beta-1 integrin
Experiment: cell ELISA of crude Cos supernatants on L cells expressing α4β1 integrin
Description: Briefly, L cells transformed to express a4β1 integrin on their cell surface were plated out and grown to confluence in 96-well tissue culture plates. The samples to be tested (either crude supernatants or protein-A-purified) were serially diluted and added to each well. After incubation for 1 h on ice and very gentle washing, goat anti-mouse or anti-human (gamma-chain specific) peroxidase conjugates (Sigma) were added. After a further 1 h incubation on ice and very gentle washing, the substrate (o-phenylenediamine dihydrochloride, Sigma) was added. After incubation for 30 min at room temperature, the reaction was stopped by adding 1 M H₂SO₄, and the A₄₉₀ was measured.

binding result: binds
B1: reshaped human 21.6 antibody (La+Ha) (antibody, human IgG1, V domains shown)
VH: QVQLVQSGAEVKKPGASVKVSCKASGFNIKDTYIHWVRQAPGQRLEWMGRIDPANGYTKYDPKFQGRVTITADTSASTAYMELSSLRSEDTAVYYCAREGYYGNYGVYAMDYWGQGTLVTVSS
VL: DIQMTQSPSSLSASVGDRVTITCKTSQDINKYMAWYQQTPGKAPRLLIHYTSALQPGIPSRFSGSGSGRDYTFTISSLQPEDIATYYCLQYDNLWTFGQGTKVEIK
notes: Human IgG1 kappa, expressed in Cos cells; not shown: human gamma-1 heavy chain constant region; human kappa light chain constant region
